From the Human Domainome abundance scans (Beltran et al. 2025) come the findings set out here.

± gives the uncertainty stated by the source.

B1: LIM and senescent cell antigen-like-containing domain protein 2, residues 13 to 71; numbered along this chain, Q7Z4I7 (parent)
chain: AVCQRCQARFSPAERIVNSNGELYHEHCFVCAQCFRPFPEGLFYEFEGRKYCEHDFQML

In this data set the parent is B1. Nature of the data set: abundance fitness (aPCA) (normalised: wild type 0, dead -1); higher = more abundant; growth selection in yeast, the domain comes from the species named. Particulars: Homo sapiens.
For AVDQRCQARFSPAERIVNSNGELYHEHCFVCAQCFRPFPEGLFYEFEGRKYCEHDFQML [C3D], the abundance fitness was -0.894 ± 0.24.

On to AVIQRCQARFSPAERIVNSNGELYHEHCFVCAQCFRPFPEGLFYEFEGRKYCEHDFQML [C3I], for which the abundance fitness is -1.25 ± 0.35.

As for AVRQRCQARFSPAERIVNSNGELYHEHCFVCAQCFRPFPEGLFYEFEGRKYCEHDFQML [C3R], the abundance fitness is -1.21 ± 0.18.

With AVFQRCQARFSPAERIVNSNGELYHEHCFVCAQCFRPFPEGLFYEFEGRKYCEHDFQML [C3F], the abundance fitness was -1.11 ± 0.25.

For the variant AVSQRCQARFSPAERIVNSNGELYHEHCFVCAQCFRPFPEGLFYEFEGRKYCEHDFQML [C3S], the abundance fitness is -0.832 ± 0.11.

For the variant AVQQRCQARFSPAERIVNSNGELYHEHCFVCAQCFRPFPEGLFYEFEGRKYCEHDFQML [C3Q], the abundance fitness is -1.33 ± 0.32.

Turning to AVNQRCQARFSPAERIVNSNGELYHEHCFVCAQCFRPFPEGLFYEFEGRKYCEHDFQML [C3N], the abundance fitness is -0.687 ± 0.13.

As for AVEQRCQARFSPAERIVNSNGELYHEHCFVCAQCFRPFPEGLFYEFEGRKYCEHDFQML [C3E], the abundance fitness was -0.468 ± 0.17.

With AVAQRCQARFSPAERIVNSNGELYHEHCFVCAQCFRPFPEGLFYEFEGRKYCEHDFQML [C3A], the abundance fitness was -0.682 ± 0.12.

In the case of AVGQRCQARFSPAERIVNSNGELYHEHCFVCAQCFRPFPEGLFYEFEGRKYCEHDFQML [C3G], the abundance fitness was -0.499 ± 0.083.

For the variant AVKQRCQARFSPAERIVNSNGELYHEHCFVCAQCFRPFPEGLFYEFEGRKYCEHDFQML [C3K], the abundance fitness is -1.08 ± 0.23.

For AVHQRCQARFSPAERIVNSNGELYHEHCFVCAQCFRPFPEGLFYEFEGRKYCEHDFQML [C3H], the abundance fitness was -1 ± 0.23.

AVMQRCQARFSPAERIVNSNGELYHEHCFVCAQCFRPFPEGLFYEFEGRKYCEHDFQML [C3M]: the abundance fitness is -0.843 ± 0.14.

In the case of AVLQRCQARFSPAERIVNSNGELYHEHCFVCAQCFRPFPEGLFYEFEGRKYCEHDFQML [C3L], the abundance fitness was -0.705 ± 0.088.

GVCQRCQARFSPAERIVNSNGELYHEHCFVCAQCFRPFPEGLFYEFEGRKYCEHDFQML [A1G]: the abundance fitness was -0.135 ± 0.081.

In the case of QVCQRCQARFSPAERIVNSNGELYHEHCFVCAQCFRPFPEGLFYEFEGRKYCEHDFQML [A1Q], the abundance fitness was -0.313 ± 0.18.

EVCQRCQARFSPAERIVNSNGELYHEHCFVCAQCFRPFPEGLFYEFEGRKYCEHDFQML [A1E]: the abundance fitness came to 0.161 ± 0.11.

Consider RVCQRCQARFSPAERIVNSNGELYHEHCFVCAQCFRPFPEGLFYEFEGRKYCEHDFQML [A1R], for which the abundance fitness is -0.573 ± 0.22.

KVCQRCQARFSPAERIVNSNGELYHEHCFVCAQCFRPFPEGLFYEFEGRKYCEHDFQML [A1K]: the abundance fitness was 0.066 ± 0.15.

Regarding DVCQRCQARFSPAERIVNSNGELYHEHCFVCAQCFRPFPEGLFYEFEGRKYCEHDFQML [A1D], the abundance fitness was -0.256 ± 0.21.

NVCQRCQARFSPAERIVNSNGELYHEHCFVCAQCFRPFPEGLFYEFEGRKYCEHDFQML [A1N]: the abundance fitness is -0.481 ± 0.41.

For TVCQRCQARFSPAERIVNSNGELYHEHCFVCAQCFRPFPEGLFYEFEGRKYCEHDFQML [A1T], the abundance fitness came to 0.176 ± 0.16.

For the variant PVCQRCQARFSPAERIVNSNGELYHEHCFVCAQCFRPFPEGLFYEFEGRKYCEHDFQML [A1P], the abundance fitness was -0.739 ± 0.32.

Consider WVCQRCQARFSPAERIVNSNGELYHEHCFVCAQCFRPFPEGLFYEFEGRKYCEHDFQML [A1W], for which the abundance fitness is -0.327 ± 0.47.

For the variant SVCQRCQARFSPAERIVNSNGELYHEHCFVCAQCFRPFPEGLFYEFEGRKYCEHDFQML [A1S], the abundance fitness was 0.002 ± 0.12.

Take LVCQRCQARFSPAERIVNSNGELYHEHCFVCAQCFRPFPEGLFYEFEGRKYCEHDFQML [A1L]: the abundance fitness was -0.149 ± 0.15.

For the variant VVCQRCQARFSPAERIVNSNGELYHEHCFVCAQCFRPFPEGLFYEFEGRKYCEHDFQML [A1V], the abundance fitness is -0.058 ± 0.069.

Turning to ALCQRCQARFSPAERIVNSNGELYHEHCFVCAQCFRPFPEGLFYEFEGRKYCEHDFQML [V2L], the abundance fitness is -0.144 ± 0.062.

Regarding AWCQRCQARFSPAERIVNSNGELYHEHCFVCAQCFRPFPEGLFYEFEGRKYCEHDFQML [V2W], the abundance fitness was -0.546 ± 0.24.

AGCQRCQARFSPAERIVNSNGELYHEHCFVCAQCFRPFPEGLFYEFEGRKYCEHDFQML [V2G]: the abundance fitness was determined as 0.129 ± 0.11.

As to APCQRCQARFSPAERIVNSNGELYHEHCFVCAQCFRPFPEGLFYEFEGRKYCEHDFQML [V2P], the abundance fitness is -0.274 ± 0.093.

On to ARCQRCQARFSPAERIVNSNGELYHEHCFVCAQCFRPFPEGLFYEFEGRKYCEHDFQML [V2R], for which the abundance fitness was -0.002 ± 0.082.

Consider AICQRCQARFSPAERIVNSNGELYHEHCFVCAQCFRPFPEGLFYEFEGRKYCEHDFQML [V2I], for which the abundance fitness worked out at 0.019 ± 0.1.

Turning to ATCQRCQARFSPAERIVNSNGELYHEHCFVCAQCFRPFPEGLFYEFEGRKYCEHDFQML [V2T], the abundance fitness was 0.011 ± 0.098.

Regarding AKCQRCQARFSPAERIVNSNGELYHEHCFVCAQCFRPFPEGLFYEFEGRKYCEHDFQML [V2K], the abundance fitness was determined as 0.018 ± 0.14.

AYCQRCQARFSPAERIVNSNGELYHEHCFVCAQCFRPFPEGLFYEFEGRKYCEHDFQML [V2Y]: the abundance fitness is -0.097 ± 0.11.

As to AMCQRCQARFSPAERIVNSNGELYHEHCFVCAQCFRPFPEGLFYEFEGRKYCEHDFQML [V2M], the abundance fitness turned out to be 0.093 ± 0.088.

As for AFCQRCQARFSPAERIVNSNGELYHEHCFVCAQCFRPFPEGLFYEFEGRKYCEHDFQML [V2F], the abundance fitness was -0.324 ± 0.11.

ASCQRCQARFSPAERIVNSNGELYHEHCFVCAQCFRPFPEGLFYEFEGRKYCEHDFQML [V2S]: the abundance fitness is -0.445 ± 0.11.

With ACCQRCQARFSPAERIVNSNGELYHEHCFVCAQCFRPFPEGLFYEFEGRKYCEHDFQML [V2C], the abundance fitness was -0.303 ± 0.14.

As to AHCQRCQARFSPAERIVNSNGELYHEHCFVCAQCFRPFPEGLFYEFEGRKYCEHDFQML [V2H], the abundance fitness was -0.238 ± 0.17.

Turning to ANCQRCQARFSPAERIVNSNGELYHEHCFVCAQCFRPFPEGLFYEFEGRKYCEHDFQML [V2N], the abundance fitness was -0.139 ± 0.13.

Take AACQRCQARFSPAERIVNSNGELYHEHCFVCAQCFRPFPEGLFYEFEGRKYCEHDFQML [V2A]: the abundance fitness is -0.53 ± 0.13.

Regarding AECQRCQARFSPAERIVNSNGELYHEHCFVCAQCFRPFPEGLFYEFEGRKYCEHDFQML [V2E], the abundance fitness is -0.081 ± 0.093.

For the variant ADCQRCQARFSPAERIVNSNGELYHEHCFVCAQCFRPFPEGLFYEFEGRKYCEHDFQML [V2D], the abundance fitness is -0.128 ± 0.16.
